We go through 12 molecules from US20200264176A1 (MIT, published 2020).

As a reminder, the Kd is the equilibrium constant for the complex coming apart. As a reminder, the koff is a measure of how fast the partners let go of each other. For orientation: kon means the rate constant with which the complex forms. The low end stands for slow association, the high end for fast association.

Assay [1] deals with T1, EDIII-DV1 (Dengue virus serotype 1, UniProt P17763 581-673).
T1 construct: also called EDIII of DV1; envelope glycoprotein domain III of Dengue virus serotype 1
Briefly: SPR.

Assay [2] addresses T2, EDIII-DV3 (Dengue virus serotype 3, UniProt Q6YMS3 579-671).
T2 construct: also called EDIII of DV3; envelope glycoprotein domain III of Dengue virus serotype 3
The assay is described as follows: SPR.

Assay [3] deals with T1, EDIII-DV1. Briefly: SPR. This is another data set of the same source. (SPR reads the build-up and loss of mass on a sensor chip optically.)
Assay [4] concerns the target T3, EDIII-DV2 (Dengue virus serotype 2, UniProt P14337 581-673).
T3 construct: also called EDIII of DV2; envelope glycoprotein domain III of Dengue virus serotype 2
Briefly: SPR.

For assay [5], the target named is T2, EDIII-DV3. Briefly: SPR. The source holds these as a separate data set.
The target in assay [6] is T1, EDIII-DV1. Briefly: competition ELISA. On the technique in general: In an ELISA, binding on a coated surface is turned into a signal by an enzyme label.
The target of assay [7] is T3, EDIII-DV2. The assay is described as follows: competition ELISA.
Assay [8] deals with T2, EDIII-DV3. The assay is described as follows: competition ELISA.
The target in assay [9] is T4, Dengue virus serotype 1 (DV1), envelope (E) glycoprotein on virus (Dengue virus serotype 1). The assay is described as follows: cell-based or functional assay.
Assay [10] addresses T5, Dengue virus serotype 2 (DV2), envelope (E) glycoprotein on virus (Dengue virus serotype 2). Briefly: cell-based or functional assay.
Assay [11] addresses T6, Dengue virus serotype 3 (DV3), envelope (E) glycoprotein on virus (Dengue virus serotype 3). Briefly: cell-based or functional assay.
In assay [12] the target is T1, EDIII-DV1. The assay is described as follows: competition ELISA, equilibrium in solution.
Assay [13] has as its target T3, EDIII-DV2. The assay is described as follows: competition ELISA, equilibrium in solution.
Assay [14] has as its target T2, EDIII-DV3. The assay is described as follows: competition ELISA, equilibrium in solution.
The target of assay [15] is T1, EDIII-DV1. The assay is described as follows: indirect ELISA, coated recombinant EDIII.
The target in assay [16] is T3, EDIII-DV2. Briefly: indirect ELISA, coated recombinant EDIII.
Assay [17] concerns the target T2, EDIII-DV3. Briefly: indirect ELISA, coated recombinant EDIII.
The target of assay [18] is T7, EDIII-DV4 (Dengue virus serotype 4, UniProt P09866 580-672). The assay is described as follows: indirect ELISA, coated recombinant EDIII.
The target in assay [19] is T7, EDIII-DV4. Briefly: competition ELISA, equilibrium in solution.
Assay [20] deals with T7, EDIII-DV4. The assay is described as follows: calculated from KD, ΔG = RTln(KD) at 25° C.
Assay [21] concerns the target T3, EDIII-DV2. Briefly: SPR. The source holds these as a separate data set.
Assay [22] deals with T4, Dengue virus serotype 1 (DV1), envelope …. The assay is described as follows: cell-based or functional assay. This is another data set of the same source.
The target in assay [23] is T5, Dengue virus serotype 2 (DV2), envelope …. The assay is described as follows: cell-based or functional assay. The source holds these as a separate data set.
Assay [24] has as its target T6, Dengue virus serotype 3 (DV3), envelope …. The assay is described as follows: cell-based or functional assay. The source holds these as a separate data set.
In assay [25] the target is Dengue virus serotype 4 (DV4), envelope (E) glycoprotein on virus (Dengue virus serotype 4). The assay is described as follows: cell-based or functional assay.

B1: 4E11 WT (antibody, V domains shown)
VH: VKLLEQSGAELVKPGASVRLSCTASGFNIKDTYMSWVKQRPEQGLEWIGRIDPANGDTKYDPKFQGKATITADTSSNTAYLHLSSLTSGDTAVYYCSRGWEGFAYWGQGTLVTVSA
VL: ELVMTQTPASLAVSLGQRATISCRASENVDRYGNSFMHWYQQKAGQPPKLLIYRASNLESGIPARFSGSGSRTDFTLTINPVEADDVATYFCQRSNEVPWTFGGGTKLEIKR
notes: also called wt 4E11; WT 4E11
In the case of B1, the Kd in the assay with EDIII-DV1 [1] is 0.5 nM; in the assay with EDIII-DV3 [2] it was 7.58 nM; with EDIII-DV1 [6], 0.328 nM; with EDIII-DV2 [7], 5.2 nM; in the assay with EDIII-DV3 [8], 21.8 nM; in the assay with EDIII-DV1 [12], 0.328 nM. The equilibrium dissociation constant (Kd) with EDIII-DV2 [13] was determined as 5.2 nM; with EDIII-DV3 [14] it was 21.8 nM. In addition, the koff in the assay with EDIII-DV1 [3] is 0.000551 s⁻¹; with EDIII-DV2 [4] it was 0.0123 s⁻¹; in the assay with EDIII-DV3 [5] it was 0.0102 s⁻¹. Besides, the values for the kon in the assay with EDIII-DV1 [3], with EDIII-DV2 [4] and with EDIII-DV3 [5] were 1.11e+06 M⁻¹ s⁻¹, 1.98e+06 M⁻¹ s⁻¹ and 1.34e+06 M⁻¹ s⁻¹, respectively. Further, the “IC50 (read off the curve)” value in assay [9] was roughly 0.06 µg/mL; in assay [10], roughly 0.03 µg/mL; in [11], roughly 0.5 µg/mL.

B2: 4E11 VL Ser60Tyr single mutant (antibody, V domains shown)
VH: VKLLEQSGAELVKPGASVRLSCTASGFNIKDTYMSWVKQRPEQGLEWIGRIDPANGDTKYDPKFQGKATITADTSSNTAYLHLSSLTSGDTAVYYCSRGWEGFAYWGQGTLVTVSA
VL: ELVMTQTPASLAVSLGQRATISCRASENVDRYGNSFMHWYQQKAGQPPKLLIYRASNLEYGIPARFSGSGSRTDFTLTINPVEADDVATYFCQRSNEVPWTFGGGTKLEIKR
notes: also called S60Y
For the molecule B2, the binding result with EDIII-DV1 [15], with EDIII-DV2 [16], in the assay with EDIII-DV3 [17] and in the assay with EDIII-DV4 [18] was “binds” each time.

B3: 4E11 VL-E59Q single mutant (antibody, V domains shown)
VH: VKLLEQSGAELVKPGASVRLSCTASGFNIKDTYMSWVKQRPEQGLEWIGRIDPANGDTKYDPKFQGKATITADTSSNTAYLHLSSLTSGDTAVYYCSRGWEGFAYWGQGTLVTVSA
VL: ELVMTQTPASLAVSLGQRATISCRASENVDRYGNSFMHWYQQKAGQPPKLLIYRASNLQSGIPARFSGSGSRTDFTLTINPVEADDVATYFCQRSNEVPWTFGGGTKLEIKR
B3: the binding result with EDIII-DV2 [16] was “binds”. In addition, binding with EDIII-DV4 [19] was characterised by a dissociation constant (Kd) of 11000 nM. In addition, in the assay with EDIII-DV4 [20], the ΔG was -6.76 kcal/mol and the “ΔΔG (ΔGmutant - ΔGWT)” value was -0.77 kcal/mol.

B4: 4E11 VL Glu59Asn single mutant (antibody, V domains shown)
VH: VKLLEQSGAELVKPGASVRLSCTASGFNIKDTYMSWVKQRPEQGLEWIGRIDPANGDTKYDPKFQGKATITADTSSNTAYLHLSSLTSGDTAVYYCSRGWEGFAYWGQGTLVTVSA
VL: ELVMTQTPASLAVSLGQRATISCRASENVDRYGNSFMHWYQQKAGQPPKLLIYRASNLNSGIPARFSGSGSRTDFTLTINPVEADDVATYFCQRSNEVPWTFGGGTKLEIKR
notes: also called E59N
For B4, the binding result with EDIII-DV1 [15], with EDIII-DV2 [16], in the assay with EDIII-DV3 [17] and in the assay with EDIII-DV4 [18] was “binds” each time.

B5: 4E5A (antibody, V domains shown)
VH: VKLLEQSGAELVKPGASVRLSCTASGFNIKDTYMSWVKQRPEQGLEWIGRIDPENGDTKYDPKFQGKATITADTSSNTAYLHLSSLTSGDTAVYYCSRGWEGFAYWGQGTLVTVSA
VL: ELVMTQTPASLAVSLGQRATISCRASENVDKYGNSFMHWYQQKAGQPPKLLIYRASELQWGIPARFSGSGSRTDFTLTINPVEADDVATYFCQRSNEVPWTFGGGTKLEIKR
notes: also called 4E11-5A; quintuple mutant antibody
In the assay with EDIII-DV2 [21], B5 displayed a dissociation constant Kd of 0.7 nM. The FRNT50 in [22] was 0.19 µg/mL; in [23] it was 0.028 µg/mL; in assay [24], 0.77 µg/mL; in assay [25], 4 µg/mL.

B6: 4E11 VL-S60W single mutant (antibody, V domains shown)
VH: VKLLEQSGAELVKPGASVRLSCTASGFNIKDTYMSWVKQRPEQGLEWIGRIDPANGDTKYDPKFQGKATITADTSSNTAYLHLSSLTSGDTAVYYCSRGWEGFAYWGQGTLVTVSA
VL: ELVMTQTPASLAVSLGQRATISCRASENVDRYGNSFMHWYQQKAGQPPKLLIYRASNLEWGIPARFSGSGSRTDFTLTINPVEADDVATYFCQRSNEVPWTFGGGTKLEIKR
Take B6: the binding result with EDIII-DV2 [16] is “binds”.

B7: 4E11 VL-N57E single mutant (antibody, V domains shown)
VH: VKLLEQSGAELVKPGASVRLSCTASGFNIKDTYMSWVKQRPEQGLEWIGRIDPANGDTKYDPKFQGKATITADTSSNTAYLHLSSLTSGDTAVYYCSRGWEGFAYWGQGTLVTVSA
VL: ELVMTQTPASLAVSLGQRATISCRASENVDRYGNSFMHWYQQKAGQPPKLLIYRASELESGIPARFSGSGSRTDFTLTINPVEADDVATYFCQRSNEVPWTFGGGTKLEIKR
In the case of B7, in the assay with EDIII-DV4 [19], binding was characterised by a dissociation constant (Kd) of 8410 nM. In addition, in the assay with EDIII-DV4 [20], the ΔG was -6.92 kcal/mol and the “ΔΔG (ΔGmutant - ΔGWT)” value is -0.93 kcal/mol.

B8: 4E11 VH Ala55Asp single mutant (antibody, V domains shown)
VH: VKLLEQSGAELVKPGASVRLSCTASGFNIKDTYMSWVKQRPEQGLEWIGRIDPDNGDTKYDPKFQGKATITADTSSNTAYLHLSSLTSGDTAVYYCSRGWEGFAYWGQGTLVTVSA
VL: ELVMTQTPASLAVSLGQRATISCRASENVDRYGNSFMHWYQQKAGQPPKLLIYRASNLESGIPARFSGSGSRTDFTLTINPVEADDVATYFCQRSNEVPWTFGGGTKLEIKR
notes: also called A55D
Take B8: the binding result in the assay with EDIII-DV1 [15], with EDIII-DV2 [16], with EDIII-DV3 [17] and with EDIII-DV4 [18] was “binds” in each case.

B9: 4E11 VH-A55E single mutant (antibody, V domains shown)
VH: VKLLEQSGAELVKPGASVRLSCTASGFNIKDTYMSWVKQRPEQGLEWIGRIDPENGDTKYDPKFQGKATITADTSSNTAYLHLSSLTSGDTAVYYCSRGWEGFAYWGQGTLVTVSA
VL: ELVMTQTPASLAVSLGQRATISCRASENVDRYGNSFMHWYQQKAGQPPKLLIYRASNLESGIPARFSGSGSRTDFTLTINPVEADDVATYFCQRSNEVPWTFGGGTKLEIKR
As for B9, in the assay with EDIII-DV4 [19], the Kd came out at 4440 nM. Besides, in the assay with EDIII-DV4 [20], the ΔG was -7.29 kcal/mol and the “ΔΔG (ΔGmutant - ΔGWT)” value was -1.31 kcal/mol.

B10: 4E11 VL Ser60Arg single mutant (antibody, V domains shown)
VH: VKLLEQSGAELVKPGASVRLSCTASGFNIKDTYMSWVKQRPEQGLEWIGRIDPANGDTKYDPKFQGKATITADTSSNTAYLHLSSLTSGDTAVYYCSRGWEGFAYWGQGTLVTVSA
VL: ELVMTQTPASLAVSLGQRATISCRASENVDRYGNSFMHWYQQKAGQPPKLLIYRASNLERGIPARFSGSGSRTDFTLTINPVEADDVATYFCQRSNEVPWTFGGGTKLEIKR
notes: also called S60R
B10: the binding result with EDIII-DV1 [15], with EDIII-DV2 [16], in the assay with EDIII-DV3 [17] and with EDIII-DV4 [18] was “binds” in each case.

B11: 4E11 VL-R31K single mutant (antibody, V domains shown)
VH: VKLLEQSGAELVKPGASVRLSCTASGFNIKDTYMSWVKQRPEQGLEWIGRIDPANGDTKYDPKFQGKATITADTSSNTAYLHLSSLTSGDTAVYYCSRGWEGFAYWGQGTLVTVSA
VL: ELVMTQTPASLAVSLGQRATISCRASENVDKYGNSFMHWYQQKAGQPPKLLIYRASNLESGIPARFSGSGSRTDFTLTINPVEADDVATYFCQRSNEVPWTFGGGTKLEIKR
On to B11, for which the binding result in the assay with EDIII-DV2 [16] was “binds”.

B12: 4E11 VL Asn57Ser single mutant (antibody, V domains shown)
VH: VKLLEQSGAELVKPGASVRLSCTASGFNIKDTYMSWVKQRPEQGLEWIGRIDPANGDTKYDPKFQGKATITADTSSNTAYLHLSSLTSGDTAVYYCSRGWEGFAYWGQGTLVTVSA
VL: ELVMTQTPASLAVSLGQRATISCRASENVDRYGNSFMHWYQQKAGQPPKLLIYRASSLESGIPARFSGSGSRTDFTLTINPVEADDVATYFCQRSNEVPWTFGGGTKLEIKR
As to B12, the binding result with EDIII-DV1 [15], with EDIII-DV2 [16], in the assay with EDIII-DV3 [17] and in the assay with EDIII-DV4 [18] was “binds” in each case.
